DARC binding and Duffy selectivity data for four molecules are collected here from US7238711 (CAMBRIDGE ENTERPRISE, dated 2007).

A value given as a limit tells only on which side of the number the result lay.

Test [1] has as its target T1, Duffy Antigen Receptor for Chemokines (DARC) (human, UniProt Q16570 1-336).
T1 construct: whole, on cells; also called red blood cells expressing DARC
T1 sequence (looked up): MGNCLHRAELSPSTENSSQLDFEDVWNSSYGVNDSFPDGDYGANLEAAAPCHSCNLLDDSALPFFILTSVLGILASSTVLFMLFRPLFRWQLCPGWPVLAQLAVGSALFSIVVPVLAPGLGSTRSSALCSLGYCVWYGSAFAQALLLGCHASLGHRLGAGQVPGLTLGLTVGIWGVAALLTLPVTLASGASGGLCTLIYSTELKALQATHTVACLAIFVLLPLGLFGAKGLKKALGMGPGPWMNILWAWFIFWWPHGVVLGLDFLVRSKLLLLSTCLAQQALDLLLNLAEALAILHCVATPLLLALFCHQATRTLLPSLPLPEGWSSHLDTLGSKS
The experiment in a line: DARC binding, Table 18.

The target of test [2] is T1, Duffy Antigen Receptor for Chemokines …. Kind of test: ka for red blood cells divided by ka for THP-1 cells.

B1: Pep2(1-15)[SDF1] (peptide)
peptide: HLKILNTPNCALQIV
notes: also called Pep2[SDF1]; peptide 2(1-15)[SDF1α]
Consider B1, for which the DARC binding in test [1] came to 19 µM. Moreover, the Duffy selectivity in test [2] is under 1.

B2: peptide 2(1-15)[MCP-1] (peptide)
peptide: SYRRITSSKCPKEAV
notes: also called Pep2[MCP1]; Pep2(1-15)[MCP1]
Consider B2, for which, in test [1], the DARC binding came to 0.1 µM. This molecule also had a Duffy selectivity in test [2] of 0.18.

B3: SYRRITSSKC (peptide)
peptide: SYRRITSSKC
With B3, the DARC binding in test [1] is 22 µM.

B4: Pep2(1-14)[MIP1α] (peptide)
peptide: DYFETSSQCSKPGV
notes: also called Pep2[MIP1α]; peptide 2(1-15)[MIP1-α]
B4 displayed a Duffy selectivity in test [2] of over 100.
